{"source": "paper PMC9598941", "key": {"[1]": {"target": "T1, CcpA (catabolite control protein A) (Staphylococcus aureus XN108 (clinical isolate)?) (UniProt P99175)", "T1 sequence": "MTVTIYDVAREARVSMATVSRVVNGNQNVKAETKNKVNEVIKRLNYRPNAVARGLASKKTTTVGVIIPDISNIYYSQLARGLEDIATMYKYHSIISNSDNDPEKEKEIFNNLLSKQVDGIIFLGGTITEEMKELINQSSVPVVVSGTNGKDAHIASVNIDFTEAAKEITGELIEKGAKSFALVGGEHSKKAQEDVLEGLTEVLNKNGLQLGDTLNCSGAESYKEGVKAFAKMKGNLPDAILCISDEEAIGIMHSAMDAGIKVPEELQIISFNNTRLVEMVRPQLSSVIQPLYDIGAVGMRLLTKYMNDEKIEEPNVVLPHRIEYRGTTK", "experiment": "competition"}, "[2]": {"target": "T1, CcpA (catabolite control protein A) (Staphylococcus aureus XN108 (clinical isolate)?)", "experiment": "EMSA"}}, "data": [{"sequence": "GGCGCTTCCTCCAAATATAATATATTTGTTTTTATTTATCTCTTTTTATAGCTAACACCCTTATTTAAGATGATAAATATCAACAACTTCATTTTATATTGAGAAAATATTAAAAATCAATAAAATATTAAAAGAAACTAAACTTACATTAAAAAATAATTAACAAATATTTAACATTTTAACCTAAGAA (double strand) [Psak]", "values": [{"measurement": "binding", "setting": "[1]", "result": "binds"}, {"measurement": "binding", "setting": "[2]", "result": "binds"}]}]}
